Reference: the Immune Epitope Database (IEDB)

Molecular target: HLA-A*02:01
Assay: IEDB peptide-MHC binding, purified MHC/competitive/radioactivity; ≥ and ≤ were set here for values at or beyond the usual limits of such assays
[1] = source organism: Vaccinia virus WR
[2] = source organism: Mammarenavirus choriomeningitidis
[3] = source organism: Mammarenavirus brazilense
[4] = source organism: Mammarenavirus whitewaterense
[5] = source organism: Mammarenavirus machupoense
[6] = source organism: Mammarenavirus juninense
[7] = source organism: Mammarenavirus lassaense

| Sequence | IC50 [1] [nM] | further results |
| --- | --- | --- |
| FTLTGSPSST | 4460 |  |
| YLVPNVIGGV | 0.61 |  |
| CIDGKWNPVL | 1860 |  |
| TVSDYISEL | 128 |  |
| LMPIRTDTT | 2170 |  |
| YVLFTVMTYV | 1 |  |
| RIDMIDNLNI | 2550 |  |
| RTVIHLEWLL | 134 |  |
| DTVFDYYVL | 54 |  |
| GTYAVNIHV | 33 |  |
| SMVISLLSMI | 79 |  |
| YLSSWTPVV | 0.33 |  |
| FIKPPLITL | 373 |  |
| SIFINKLNGA | 1820 |  |
| YLISIFLHLV |  | IC50 [2]: 5.8 nM |
| YIIDKDTNSV | 30 |  |
| TLVAIFSYI | 863 |  |
| YLFDYPHFEA | 0.085 |  |
| TAKSSFVCGI | 1130 |  |
| IIILAVLFI | 1660 |  |
| YLDFLLLLLI | 18 |  |
| TLYDFDYYII | 5.8 |  |
| NMISDTIFV | 2.2 |  |
| RLKSSQTIEL | 338 |  |

| Sequence | IC50 [1] [nM] | further results |
| --- | --- | --- |
| NLSNCVHPAV |  | IC50 [3]: 153 nM |
| TVIHLEWLL | 5.6 |  |
| CIDGKWNPV | 8.3 |  |
| NLLLWPLYV | 0.12 |  |
| GLNDYLHSV | 1.3 |  |
| QLYLTVSFI | 3280 |  |
| KLDYWSFQL | 2.1 |  |
| VTLLCVLPAV | 3.8 |  |
| RVIGLCIRI | 17 |  |
| TIDQTANVV | 549 |  |
| FMIEGLMTSL | 0.2 |  |
| FVFILTAIL | 4.1 |  |
| YMATTILEMV | 1.5 |  |
| IMVTDTINT | 2360 |  |
| SLSLHPLYV | 9.8 |  |
| QLVDAIDNI | 154 |  |
| TVTNKEGVKI | 2880 |  |
| PVNAINDRL | 3460 |  |
| ALTSLGLLYT |  | IC50 [3]: 593 nM |
| LLNLLLWPL | 0.073 |  |
| YQLAGYILT | 16 |  |
| ELVFIKPPLI | 3300 |  |
| IMLEGETKL | 6.7 |  |
| VTLQKVLHV | 622 |  |

| Sequence | IC50 [1] [nM] | further results |
| --- | --- | --- |
| FLKMRRIFGV |  | IC50 [4]: 64 nM |
| LMEVFPQLDL | 244 |  |
| KLNKMTVEL | 6.5 |  |
| YILCNMALL | 0.38 |  |
| IMLNGIMYRL | 14 |  |
| YIDAYVSRL | 1.9 |  |
| ETYHLIDYET | 3180 |  |
| KLYTIVSTL | 15 |  |
| SQSERDNYI | 1190 |  |
| YLLDDVLYT | 1.3 |  |
| YLTAIQDFI | 1.9 |  |
| HISIKVKNHI | 280 |  |
| ILYAAFLWL | 112 |  |
| FVIVIYIFT | 3470 |  |
| FACLMFKHLL | 1140 |  |
| VMNNLSELT | 2080 |  |
| LIVRYLIQV | 13 |  |
| YLLAVCGCI | 13 |  |
| LLFFLALSI | 26 |  |
| LIYSMEFTNL | 345 |  |
| ILLTLRMTQL | 366 |  |
| FVFRSPFIV | 4.6 |  |
| FTPRDNETV | 877 |  |
| GVSKKNIWL | 3160 |  |

| Sequence | IC50 [1] [nM] | further results |
| --- | --- | --- |
| LTREMGFLV | 2360 |  |
| ALGGSVNIWA | 1160 |  |
| TINCDVGYEV | 385 |  |
| SLLVIWILIV | 1020 |  |
| NISGYNFSL |  | IC50 [2]: 642 nM |
| ILLFVIVIYI | 7.8 |  |
| SIDIETESV | 235 |  |
| FLDNECHTI | 0.78 |  |
| FTFTIYTDEV | 352 |  |
| SMFLMTATL | 2.3 |  |
| SLLPLSLLFL |  | IC50 [5]: 7.3 nM |
| RLYDYFTRV | 11 |  |
| GLHTEFQTV |  | IC50 [6]: 129 nM |
| AIYKLGSSI | 1100 |  |
| FVFAWFNGV | 0.38 |  |
| VLNIVLFIL | 393 |  |
| NLPEDIKRV | 151 |  |
| FLTLLGIGCV | 0.29 |  |
| LTFNFTPKI | 251 |  |
| ELIKELTTL | 134 |  |
| LLYILRYIV | 138 |  |
| SIRFHIKEL | 1560 |  |
| MIDDSIEGI | 210 |  |
| EQEFLTAAL | 17 |  |

| Sequence | IC50 [1] [nM] | further results |
| --- | --- | --- |
| YAYGWIPET | 43 |  |
| KLTDKKTFII | 4390 |  |
| ILFNLSKFLL | 4 |  |
| SLHSLSVETI | 95 |  |
| GLYMGNLSQL |  | IC50 [5]: 72 nM |
| FLQEALNIAL |  | IC50 [5]: 16 nM |
| YLCTFMIIT | 87 |  |
| KLITSAFDLL | 457 |  |
| ALNIALIAV |  | IC50 [4]: 19 nM |
| GLLQFIVFLL |  | IC50 [4]: 242 nM |
| ALMDCIMFDA |  | IC50 [7]: 1.1 nM |
| FQTVSFSMV |  | IC50 [6]: 180 nM |
| KIIETYLGRV | 30 |  |
| RLLGTFTWTL |  | IC50 [7]: 5.1 nM |
| FVNDLMTMNI | 178 |  |
| SVEKIADDRI | 3830 |  |
| TLSRHIFMA | 6.2 |  |
| ALVASLNPNM | 1330 |  |
| FLQEALNIA |  | IC50 [5]: 6.9 nM |
| VIDEILFKV | 1.3 |  |
| KMHDVIAPA | 2.6 |  |
| GLTDLGLLYT |  | IC50 [4]: 102 nM |
| FVNKHLPTM | 1590 |  |
| IVFNLPVSKV | 53 |  |

| Sequence | IC50 [1] [nM] | further results |
| --- | --- | --- |
| RLYDLTRYA | 4 |  |
| SMLGIWFFT | 0.65 |  |
| LIFFVIILA | 234 |  |
| YLKEYIPKA | 1.7 |  |
| VLLDYGLHGL | 1.3 |  |
| EAINIALIAV |  | IC50 [3]: 1480 nM |
| LLQFIVFLL |  | IC50 [4]: 159 nM |
| KMKCFGNTAV |  | IC50 [6]: 2930 nM |
| MLVNRMQRI | 48 |  |
| GMLFVNDLM | 467 |  |
| FLVGVAIILV | 7.6 |  |
| KLIGITAIM | 20 |  |
| KLRPNSFWFV | 2 |  |
| LVDNVDFATI | 3670 |  |
| AAMYQYIFL | 686 |  |
| NVFETRIVM | 2640 |  |
| VLYNGVNYL | 0.25 |  |
| KLFYVYYNL | 0.49 |  |
| LLYAHINAL | 8.3 |  |
| MLPKQDIVGL | 96 |  |
| NLFTFLHEI | 1.1 |  |
| FLLLTSIPI | 0.11 |  |
| ILQISQCQRI | 2600 |  |
| AITDAAVAVA | 3830 |  |

| Sequence | IC50 [1] [nM] | further results |
| --- | --- | --- |
| YIIDWMVDI | 0.92 |  |
| GVLTIKAPNV | 3880 |  |
| RLIVLFEVFV | 103 |  |
| HLGYIIRYPV | 12 |  |
| LLDLFGPEV | 6 |  |
| VMISILNPV | 33 |  |
| VMDNDDNIL | 719 |  |
| YIFAALGGSV | 45 |  |
| ILRKIFYSV | 126 |  |
| GTGYYKYFI | 1650 |  |
| NLVKWPLLNI | 146 |  |
| LQYDLWNVV | 22 |  |
| PLYEVNSTM | 4580 |  |
| FMAYTTSHI | 3.2 |  |
| VLVDNVDFA | 20 |  |
| AVKDKNWTV | 1810 |  |
| NIVIFVKRL | 1280 |  |
| AALGGSVNI | 1460 |  |
| FILHRLHEI | 0.65 |  |
| LVDAIDNIV | 37 |  |
| FIFTGITLFL | 0.92 |  |
| TLDNILGIL | 67 |  |
| VTMVDKPTEL | 3360 |  |
| RLESYHRFDM | 3330 |  |

| Sequence | IC50 [1] [nM] | further results |
| --- | --- | --- |
| ILSPPINAPI | 38 |  |
| FIYLLFASM | 173 |  |
| LTIMGVIFL | 608 |  |
| YLVSSLSEI | 6.5 |  |
| FTTTLFLHLV |  | IC50 [3]: 473 nM |
| STEERHIFL | 2250 |  |
| YTALHYYYL | 17 |  |
| NMNYSDDYMM | 2640 |  |
| SQYYFSMLV | 13 |  |
| TLFLILCYFI | 21 |  |
| KMEYNLYAEL | 297 |  |
| YLYALYSPL | 0.13 |  |
| SQMTSTFIM | 85 |  |
| YQLFSDAKA | 1790 |  |
| YMDLSYHGVT | 85 |  |
| SMITMSAFLI | 59 |  |
| SISVVFSTNL | 2890 |  |
| YVMTMILFL | 0.065 |  |
| GIKSVVVPI | 869 |  |
| FLKDVMVEI | 3 |  |
| ILTREMGFL | 2280 |  |
| RLLDDLVIV | 0.65 |  |
| RTSQKGTVA | 765 |  |
